Measurements: patent publication US10413607B2, “Antibody specifically binding to ErbB3 and use thereof” (ISU ABXIS CO., LTD., priority 2015, dated 2019)
Substitutions are numbered along the chain they refer to.

B1: 442S1: modified anti-ErbB3 antibody from lead antibody 442P (CDR mutagenesis) (antibody, V domains shown)
VH: EVQLLESGGGLVQPGGSLRLSCAASGFTFSDYDMSWVRQAPGKGLEWVSTIDLDSGSIYYADSVQGRFTISRDNSKNTLYLQMNSLRAEDTAVYYCAKDLHMGPEGPFDYWGQGTLVTVSS
VL: QSVLTQPPSASGTPGQRVTISCSGSSSNIGSNSVSWYQQLPGTAPKLLIYSDNHRPSGVPDRFSGSKSGTSASLAISGLRSEDEADYYCQGWDTSLSGHVFGGGTKLTVLG
modifications: Heavy chain variable region of antibody 442S1; Light chain variable region of antibody 442S1
B2: 451M4: modified anti-ErbB3 antibody from lead antibody 451P (CDR mutagenesis) (antibody, V domains shown)
VH: EVQLLESGGGLVQPGGSLRLSCAASGFTFSYYDMSWVRQAPGKGLEWVSAIYYDSGSIYYADSAKGRFTISRDNSKNTLYLQMNSLRAEDTAVYYCAKDRLFASDSTFDYWGQGTLVTVSS
VL: B1 VL with S26P, S31N, S35T, S51Y, N53S, Q90G, G91S, T94A, S97N, H99Y
modifications: Heavy chain variable region of antibody 451M4; Light chain variable region of antibody 451M4
B3: 451M7: modified anti-ErbB3 antibody from lead antibody 451P (CDR mutagenesis) (antibody, V domains shown)
VH: B2 VH with A103E
VL: B1 VL with S26P, S31N, S35T, S51Y, N53S, Q90G, G91S, T94A, S97N, H99Y
modifications: Heavy chain variable region of antibody 451M7; Light chain variable region of antibody 451M7
B4: 442S6: modified anti-ErbB3 antibody from lead antibody 442P (CDR mutagenesis) (antibody, V domains shown)
VH: B1 VH with T50S, D52Y, L53P, I58T, Y59D, L100R, G103W
VL: B1 VL with V34G, S51A, H54W, Q90A, G91A, T94S, H99Y
modifications: Heavy chain variable region of antibody 442S6; Light chain variable region of antibody 442S6
B5: 451M5: modified anti-ErbB3 antibody from lead antibody 451P (CDR mutagenesis) (antibody, V domains shown)
VH: B2 VH with Y31D, A103E
VL: B1 VL with S26P, S31N, S35T, S51Y, N53S, Q90G, G91S, T94A, S97N, H99Y
modifications: Heavy chain variable region of antibody 451M5; Light chain variable region of antibody 451M5
B6: 451M6: modified anti-ErbB3 antibody from lead antibody 451P (CDR mutagenesis) (antibody, V domains shown)
VH: B2 VH with Y31H, A103E
VL: B1 VL with S26P, S31N, S35T, S51Y, N53S, Q90G, G91S, T94A, S97N, H99Y
modifications: Heavy chain variable region of antibody 451M6; Light chain variable region of antibody 451M6

What follows are molecules tested against T1, recombinant human ErbB3 protein (Homo sapiens, UniProt P21860) (assay: Binding affinity of anti-ErbB3 antibody to human ErbB3 protein (Octet QK384)). Conditions: immobilized human ErbB3; binding phase about 900 seconds.
T1 construct: purchased R&D systems
Method: In particular, the binding affinities of the anti-ErbB3 antibodies to the recombinant human ErbB3 protein (R&D systems) and the antigen-antibody interactive dynamics were measured using an Octet® QK384 system (Pall Life Sciences). After activation of carboxyl groups in 20 mM of 1-ethyl-3-(3-dimethylaminopropyl)carbodiimide hydrochloride (EDC) and 40 mM of N-hydroxysulfosuccinimide (sulfo-NHS) solution on an AR2G sensor (ForteBio), 10 μg/mL of human ErbB3 protein solution diluted with 10 mM of sodium acetate (pH 4.0) (ForteBio) was added to immobilize human ErbB3 protein onto the AR2G sensor. The AR2G sensor to which the human ErbB3 protein was immobilized was treated with 1 M of ethanolamine (ForteBio) to inactivate the remaining unreacted carboxyl groups.

Going from B1 to B2, the “ka (association constant)” value rises from 522000 M⁻¹ s⁻¹ to 2.01e+06 M⁻¹ s⁻¹ (3.9-fold).

Going from B3 to B4, the “ka (association constant)” value falls from 1.35e+06 M⁻¹ s⁻¹ to 872000 M⁻¹ s⁻¹ (1.5-fold).

B5 and B6 are within 1.5-fold of each other in “ka (association constant)” value: 1.52e+06 M⁻¹ s⁻¹ for the first, 1.2e+06 M⁻¹ s⁻¹ for the second.

Same assay, conditions: immobilized human ErbB3; dissociation phase about 1200 seconds

First: B1
Second: B2
The “kd (dissociation constant)” value of the first is 31-fold lower: 3.94e-07 s⁻¹ for the first, 1.23e-05 s⁻¹ for the second.

Going from B3 to B5, the “kd (dissociation constant)” value rises from 6.63e-06 s⁻¹ to 3.29e-05 s⁻¹ (5-fold).

For B6, the “kd (dissociation constant)” value was 4.17e-06 s⁻¹.

With B4 the “kd (dissociation constant)” value was under 1e-07 s⁻¹.

Each molecule was assayed on FaDu head and neck cancer, pancreatic cancer, or lung cancer (assay: Tumor growth inhibition, FaDu head and neck, pancreatic or lung cancer animal model). Conditions: not given.
Format: in vivo
Method: The antibody 442S1 was administered into FaDu head and neck cancer, pancreatic cancer, or lung cancer animal model, and the antibodies 442P or 472P antibodies were administered into gastric cancer animal model, in the same manner as described in Examples 3.1 to 3.3.

B1 was tested, and the “tumor volume relative to negative control group” value was “tumor volume was reduced”.

What follows are molecules tested on ZR-75-30 cells (assay: Paclitaxel resistance, caspase 3/7 activity in ZR-75-30 breast cancer cells with HRG). Conditions: 100 ng/mL HRG, 10 nM Paclitaxel, 25 μg/mL 442S1, about 72 hours; FIG. 10.
Format: cell-based
Method: About 1×10^4 ZR-75-30 cells (American Type Culture Collection) were inoculated onto a plate and incubated in RPMI 1640 medium (Invitrogen) including 10% (v/v) FBS at 37° C. under 5% CO2 conditions for about 24 hours. The medium was then exchanged with fresh medium (100 ng/mL HRG added) including 0.1% (v/v) FBS, and further incubation was performed at 37° C. under 5% CO2 conditions for about 24 hours. 10 nM of Paclitaxel (Bristol-Myers Squibb) and 25 μg/mL of antibody 442S1 were added to the cultured cells and incubated at 37° C. under 5% CO2 conditions for about 72 hours. The cultured cells were collected, and the activity of caspase 3/7 as an apoptotic marker was measured using a Caspase 3/7 Substrate Assay (Promega).

For `CC(=O)O[C@H]1C(=O)[C@@]2(C)[C@H]([C@H](OC(=O)c3ccccc3)[C@]3(O)C[C@H](OC(=O)[C@H](O)[C@@H](NC(=O)c4ccccc4)c4ccccc4)C(C)=C1C3(C)C)[C@]1(OC(C)=O)CO[C@@H]1C[C@@H]2O` [Paclitaxel], the “activity of caspase 3/7” value was “reduced”.

What follows are molecules tested on FaDu human head and neck cancer cells (assay: Cetuximab resistant FaDu xenograft model). Conditions: after Cetuximab failure; 10 mg/kg 442S1, 5 mg/kg Cetuximab, twice a week, 2 weeks; FIG. 12.
Format: in vivo, NOD SCID mice
Method: FaDu human head and neck cancer cells (Shanghai Institutes of Biological Sciences) were incubated in EMEM medium (Hyclone) including 10% FBS (Invitrogen), 0.01 mM NEAA (Non-Essential Amino Acid, Hyclone), and 2 mM L-glutamine (Invitrogen). About 5×10^6 FaDu cancer cells were suspended in 100 μl of PBS and then subcutaneously injected into the frank region of the female NOD SCID mice (HFK Bio-Technology Co., Ltd.). Weights of the mice were measured twice a week, and tumor volume was calculated using the equation of “0.5 a×b^2”, where a and b were the long and short diameters of the tumor, respectively. When the tumor volume reached about 165 mm^3 after 8 days from the inoculation of the cancer cells, the mice were randomly selected. […] Tumor volumes were measured twice a week.

B1 was tested, and the “tumor suppression effect compared with Cetuximab alone” value was “significant tumor suppression effect”.
